Patent publication EP4793287A1, “TUMOR MICROENVIRONMENT SPECIFICALLY ACTIVATED CD47 ANTIBODY” (Affinity (Shanghai) Biopharmaceutical Co., Ltd., priority 2023, dated 2025)

Assays:
[1] = target: T1, CHOK1-CD47 cells (Homo sapiens, UniProt Q08722); experiment: FACS binding of CD47 antibodies to CHOK1-CD47 cells; details: Example 4.3
T1 construct: expressed in transfected cells; host or cells: CHO-K1 (CHOK1-CD47, puromycin selection)
Method: The desired overexpressing cell line, CHOK1-CD47 (cultured in RPMI-1640 (ATCC Modification, Gibco, Cat# A10491-01) + 10% FBS (BI, Cat# 04-001-1A) + 1× P/S + 6 µg/ml Puromycin (Gibco, Cat# a1113803, 10 × 1 ml (10 mg/ml))), was expanded to the logarithmic phase. Cells were digested, collected, and pipetted to create a single-cell suspension, followed by centrifugation and removal of the supernatant. The cells were resuspended in FACS buffer (PBS + 2% FBS) and counted, and the cell density was adjusted to 2×10^6/ml. 100 µl/well of this suspension was added to a 96-well plate (Corning, Cat# 3799). […] After three washes with FACS buffer by centrifugation, the cells were resuspended in 200 µl/well of FACS buffer and analyzed using FACS (BECKMAN COULTER, CytoFLEX). Data were fitted and the results were analyzed using software (GraphPad Prism 8).
The desired overexpressing cell line, CHOK1-CD47 (cultured in RPMI-1640 (ATCC Modification, Gibco, Cat# A10491-01) + 10% FBSThe (BI, Cat# 04-001-1A) + 1× P/S + 6 µg/ml Puromycin (Gibco, Cat# A1113803, 10 × 1 ml (10 mg/ml))), was expanded to the logarithmic phase. […] After three washes with FACS buffer by centrifugation, the cells were resuspended in 200 µl/well of FACS buffer and analyzed using FACS (BECKMAN COULTER, CytoFLEX). Data were fitted and the results were analyzed using software (GraphPad Prism 8).

[2] = target: T2, Recombinant human CD47 protein (Homo sapiens, UniProt Q08722); experiment: ELISA detection of CD47 antibody; assay type: binding
T2 construct: purchased DIMA BIOTECH PME-100008
T2 sequence (Q08722 19-323): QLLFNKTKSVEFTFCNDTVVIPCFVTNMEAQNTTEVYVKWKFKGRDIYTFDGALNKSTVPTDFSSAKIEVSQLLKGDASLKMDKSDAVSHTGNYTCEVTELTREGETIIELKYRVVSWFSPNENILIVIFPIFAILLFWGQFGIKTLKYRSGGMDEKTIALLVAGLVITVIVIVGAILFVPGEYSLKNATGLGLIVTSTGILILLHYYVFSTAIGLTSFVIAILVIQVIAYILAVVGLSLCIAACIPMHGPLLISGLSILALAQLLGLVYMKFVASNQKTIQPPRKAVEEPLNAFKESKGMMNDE
Method: Recombinant human CD47 protein (DIMA BIOTECH, Cat# PME-100008) was diluted with PBS to a concentration of 1 µg/ml, coated onto ELISA plates with 100 µl/well, and incubated overnight at 4 °C. On the following day, the plates were washed with 300 µl/well of PBST for three times. 300 µl/well of blocking solution (PBST containing 1% BSA (W/W)) was added, and the plates were blocked at 37 °C for 2 hours. After the blocking solution was discarded, the plates were washed with PBST for three times. 100 µl/well of antibody (5-fold gradient dilution, 8 dilution points) was added and incubated at 37 °C for 1 hour. The antibody solution was then discarded, and the plates were washed with PBST for three times. Goat anti-Human IgG Fc Highly Cross-Adsorbed Secondary Antibody, HRP (Invitrogen, Cat# A18829, 1:5000 dilution, 100 µl/well) was added and incubated at 37 °C for 0.5 hours, followed by three washes with PBST. 100 µl/well of TMB chromogenic substrate (solarbio, Cat# PR1200) was added and incubated at 37 °C for 5 minutes, after which 50 µl/well of ELISA stop solution (solarbio, Cat# C1058) was added. The OD450 was read using a microplate reader (ELx800 Absorbance Microplate Reader, BioTek). Data analysis and curve fitting were performed using software (GraphPad Prism 8).

[3] = target: human CD47 antigen (Homo sapiens, UniProt Q08722); experiment: Affinity measurement by SPR (BIAcore T200); details: 25 °C, 1:1 binding model
human CD47 antigen, sequence (Q08722 19-323): as above
Method: The binding affinity between the antigen and the antibody was measured using a BIAcore T200 instrument. The binding strength between the CD47 antigen and the antibody was determined using a CM5 chip (purchased from Cytiva, Cat# 29149603) via amine coupling. First, the CD47 antigen was immobilized onto the CM5 chip. According to the instructions of the Amine Coupling Kit (purchased from Cytiva, Cat# BR100050), using PBST as the running buffer, NHS and EDC were mixed and injected to activate the chip for approximately 420 seconds. The CD47 antigen was diluted to 10 µg/mL in 10 mM sodium acetate (pH 5.5) and injected to achieve an immobilization level of 141.2 RU. Finally, the remaining activated sites were blocked with 1 M ethanolamine (pH 8.5). Subsequently, the affinity of the antibody for the CD47 antigen was determined using the multi-cycle kinetics method. In each cycle, a single concentration of the antibody protein was injected, and the association and dissociation processes between the antibody and the antigen protein were recorded. Finally, the chip was regenerated with Glycine-HCl (pH 1.5). […] Data were analyzed according to a 1:1 binding model, and the kinetic parameters of antibody-antigen binding, including the association rate constant (Ka), dissociation rate constant (Kd), equilibrium dissociation constant (KD), and maximum binding signal (Rmax), were fitted.

T1 sequence (Q08722 19-323): as above

B1: CD47 TMEAbody: CD47 TMEAbody conjugated with PEG of approximately 20K molecular weight (i.e., PEG20K) (conjugate)
VH: QQQLEESGGGLVKPEGSLTLTCTASGFSFSSGYDMCWVRQAPGRGLEWIACIYTRSSGGTCYASWAKGRFTISKTSSTVDLRMTSLTAADTATYFCAGGRSSYRLNLWGQGALVTVSS
VL: DVVMTQTPSPVEAAVGGTVTIKCQASQSISNELSWYQQKPGQPPKLLIYRASTLESGVSSRFKGSGSGTEFTLTISDLECADAATYYCQSTFYGDYGNAFGGGTEVVVK
binding to cells lower compared to 70H1 [1]: approximately 20 fold | binding affinity weaker compared to 70H1 [2]: approximately 7 fold | recovery of binding affinity ([2]; legumain (asparaginyl endopeptidase, AEP)): recoverable by legumain | Ka [3]: 24400 M⁻¹ s⁻¹
